The target in assay [1] is mVDAC1 labelled with Alexa Fluor 532 C5-maleimide (UniProt Q60932). The experiment in a line: MST.
For assay [2], the target named is mVDAC1 labelled with Alexa Fluor 532 C5-maleimide (UniProt Q60932 14-296, Alexa Fluor 532 C5-maleimide label). The experiment in a line: MST.

Experimental findings from doi:10.1101/2021.09.14.460262 (bioRxiv, 2021) are described below.

Chain of mVDAC1 labelled with Alexa Fluor 532 C5-maleimide (UniProt Q60932) (Q60932 14-296): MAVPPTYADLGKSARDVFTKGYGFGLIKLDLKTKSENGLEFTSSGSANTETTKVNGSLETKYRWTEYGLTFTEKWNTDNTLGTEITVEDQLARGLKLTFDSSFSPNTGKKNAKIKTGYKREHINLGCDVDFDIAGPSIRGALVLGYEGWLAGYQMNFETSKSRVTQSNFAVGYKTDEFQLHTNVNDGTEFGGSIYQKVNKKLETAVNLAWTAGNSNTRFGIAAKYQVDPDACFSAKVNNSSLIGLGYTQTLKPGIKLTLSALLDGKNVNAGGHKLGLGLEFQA
Chain of mVDAC1 labelled with Alexa Fluor 532 C5-maleimide (UniProt Q60932 14-296, Alexa Fluor 532 C5-maleimide label) (Q60932 14-296): as above

“caspase 8-cleaved recombinant BID (His-rtBID) (domain or fragment)”: the Kd (commonly the concentration at which binding is half-saturated) in assay [1] was found to be 37.1 µM.

B1: recombinant full length His6-BID (natural protein, UniProt P70444 1-195, looked up)
chain: MDSEVSNGSGLGAEHITDLLVFGFLQSSGCTRQELEVLGRELPVQAYWEADLEDELQTDGSQASRSFNQGRIEPDSESQEEIIHNIARHLAQIGDEMDHNIQPTLVRQLAAQFMNGSLSEEDKRNCLAKALDEVKTAFPRDMENDKAMLIMTMLLAKKVASHAPSLLRDVFHTTVNFINQNLFSYVRNLVRNEMD
As to B1, in assay [2], the affinity, expressed as Kd, was 1420 µM.
